Measured values reported in article PMC7379371.

Experiments:
[1] = molecular target: chimeric antibody I3.1 Fab (human); assay: BLI; fortéBIO BLItz; Fab (0.2 mg/mL) immobilised on Anti-Human Fab-CH1 second generation biosensors; gp120 core in solution at three or more concentrations (9.6 to 110 μM); 10 mM Tris, pH 7.5, 100 mM NaCl; global fit of at least three measurements
[2] = molecular target: chimeric antibody I3.1 Fab (human); assay: BLI; […]; Fab (0.2 mg/mL) […] (9.6 to 110 μM); 10 mM Tris, pH 7.5, 100 mM NaCl; […]

Sequence of chimeric antibody I3.1 Fab (human) (heavy, as listed by the source, chain 1 of 2): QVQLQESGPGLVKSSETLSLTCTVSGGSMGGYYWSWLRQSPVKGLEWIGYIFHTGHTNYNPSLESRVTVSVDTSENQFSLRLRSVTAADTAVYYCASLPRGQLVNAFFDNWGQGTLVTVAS
Sequence of chimeric antibody I3.1 Fab (human) (light, as listed by the source, chain 2 of 2): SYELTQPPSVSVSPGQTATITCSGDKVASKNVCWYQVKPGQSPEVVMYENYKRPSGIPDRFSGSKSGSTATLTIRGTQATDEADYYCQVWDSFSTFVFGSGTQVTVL

| Substance | Kd [1] [nM] | Kd [2] [nM] |
| --- | --- | --- |
| 92UG037.8 gp120 core WT (domain or fragment) | 3280 |  |
| CH505 T/F gp120 core WT (domain or fragment) |  | 1980 |
